The values below are quoted from earlier work in paper PMC5593754.

The series deals with Glu97 (UniProt position 97, WARMAEWLCTC). Nature of the series: UV-vis. Particulars: unphotolyzed (dark) state, protonated Schiff base.

Regarding “Anion channelrhodopsin 1 (GtACR1) S97E mutant (Guillardia theta; S97E)”, the pKa entry is given as “∼8”.
